Several values for one entry are separate records, joined by “and”; a condition that tells them apart may be missing. Equal entries are not always repeated. Where two headings read alike, the source gives them in different places. Each block holds one binder with its values, some of them ahead of it.
Key:
[1] = molecular target: T1, Human OSM (human, UniProt P13725 26-221); test: cell-based or functional assay
T1 sequence: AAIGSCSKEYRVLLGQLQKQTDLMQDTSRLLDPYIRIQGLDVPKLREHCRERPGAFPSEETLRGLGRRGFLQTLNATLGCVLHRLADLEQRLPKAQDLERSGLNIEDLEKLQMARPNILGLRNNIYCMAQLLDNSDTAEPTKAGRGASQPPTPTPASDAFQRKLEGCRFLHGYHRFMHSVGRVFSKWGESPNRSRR

[2] = molecular target: T2, Cynomolgus OSM (cynomolgus, UniProt A0A2K5VPC6 26-221); test: cell-based or functional assay
T2 sequence: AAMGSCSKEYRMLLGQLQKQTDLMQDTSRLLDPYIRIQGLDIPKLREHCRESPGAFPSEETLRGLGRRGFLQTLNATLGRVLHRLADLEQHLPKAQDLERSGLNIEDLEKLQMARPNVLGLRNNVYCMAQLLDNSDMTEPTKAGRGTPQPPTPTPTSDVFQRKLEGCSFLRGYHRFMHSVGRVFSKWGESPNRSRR

[3] = molecular target: Marmoset OSM (marmoset); test: cell-based or functional assay
[4] = molecular target: T1, Human OSM; test: cell-based or functional assay; remark: listed apart in the source
[5] = molecular target: T1, Human OSM; test: human gp130 ELISA, inhibition of OSM binding to gp130
[6] = molecular target: T2, Cynomolgus OSM; test: as above
[7] = molecular target: T1, Human OSM; test: cell-based or functional assay; remark: listed apart in the source
[8] = molecular target: T2, Cynomolgus OSM; test: cell-based or functional assay; remark: listed apart in the source
[9] = molecular target: T1, Human OSM; test: BIAcore kinetics
[10] = molecular target: T2, Cynomolgus OSM; test: BIAcore kinetics
[11] = molecular target: T3, Endogenous human OSM (neutrophil-derived) (human, UniProt P13725 26-221, limits assumed); test: gp130 ELISA with endogenous neutrophil-derived human OSM
T3 construct: Native OSM generated from GM-CSF stimulation of healthy human neutrophils; also called native OSM; endogenous OSM
T3 sequence: T1 sequence

[12] = molecular target: T1, Human OSM; test: BIAcore kinetics; remark: listed apart in the source
[13] = molecular target: T2, Cynomolgus OSM; test: BIAcore kinetics; remark: listed apart in the source
[14] = molecular target: T1, Human OSM; test: cell-based or functional assay; remark: listed apart in the source
[15] = molecular target: T2, Cynomolgus OSM; test: cell-based or functional assay; remark: listed apart in the source
[16] = molecular target: T1, Human OSM; test: human gp130 ELISA, inhibition of OSM binding to gp130; remark: listed apart in the source
[17] = molecular target: T2, Cynomolgus OSM; test: as above; remark: listed apart in the source
[18] = molecular target: T1, Human OSM; test: BIAcore kinetics; remark: listed apart in the source
[19] = molecular target: T2, Cynomolgus OSM; test: BIAcore kinetics; remark: listed apart in the source
[20] = molecular target: T3, Endogenous human OSM …; test: gp130 ELISA with endogenous neutrophil-derived human OSM; remark: listed apart in the source
[21] = molecular target: T1, Human OSM; test: cell-based or functional assay; remark: listed apart in the source
[22] = molecular target: T1, Human OSM; test: cell-based or functional assay; remark: listed apart in the source
[23] = molecular target: T1, Human OSM; test: cell-based or functional assay; remark: listed apart in the source
[24] = molecular target: T2, Cynomolgus OSM; test: cell-based or functional assay; remark: listed apart in the source
[25] = molecular target: T1, Human OSM; test: cell-based or functional assay; remark: listed apart in the source
[26] = molecular target: T1, Human OSM; test: Kinexa solution phase affinity
Method: (§1) Kinexa (Sapidyne Instruments 3200) solution phase affinity was used to determine the overall affinity of anti-OSM antibody H0(huCDRH1)L1 and Humanised 15E10 (an unrelated OSM antibody) to human, cynomolgus macaque, rhesus macaque and marmoset OSM (Table 15). Humanised 15E10 was added for comparison purposes.
(§2) OSM beads were prepared either by adsorption (polymethylmethacrylate beads-PMMA) or amine coupling (NHS-activated sepharose beads). The range of OSM molecules studied necessitated the generation of beads coated with different concentrations of OSM. For the solution phase portion of the assay, a fixed concentration of antibody was incubated with a broad range of OSM concentrations and allowed to reach equilibrium by incubation at r.t. for at least 2 h before analysis proceeded. The OSM beads were then used to determine the amount of free antibody present in the solution phase samples, by means of the free antibody binding to the OSM bead matrix then detected using an appropriate secondary antibody (either anti-human or anti-mouse depending on the construct being tested) labelled with a fluorescent dye. The binding curves where fitted using the Kinexa Pro analysis software inherent to the machine. Multiple runs using varying starting concentrations of antibody were then compiled and analysed using the n-curve analysis software to give a more accurate determination of affinity.

[27] = molecular target: T2, Cynomolgus OSM; test: Kinexa solution phase affinity
Method: as §1, §2

[28] = molecular target: T4, Marmoset OSM (marmoset); test: Kinexa solution phase affinity
T4 construct: also called Marm OSM
Method: as §1, §2

[29] = molecular target: T5, Rhesus OSM (rhesus macaque, UniProt F7GF43 26-221); test: Kinexa solution phase affinity
T5 construct: also called rhesus macaque OSM
T5 sequence: T2 sequence
Method: as §1, §2

[30] = molecular target: T1, Human OSM; test: cell-based or functional assay; remark: listed apart in the source
[31] = molecular target: T1, Human OSM; test: cell-based or functional assay; remark: listed apart in the source
[32] = molecular target: T1, Human OSM; test: BIAcore kinetics, purified antibody
[33] = molecular target: T2, Cynomolgus OSM; test: BIAcore kinetics, purified antibody
[34] = molecular target: T1, Human OSM; test: BIAcore, purified antibody
[35] = molecular target: T1, Human OSM; test: cell-based or functional assay; remark: listed apart in the source
[36] = molecular target: T1, Human OSM; test: cell-based or functional assay; remark: listed apart in the source
[37] = molecular target: T1, Human OSM; test: cell-based or functional assay; remark: listed apart in the source
[38] = molecular target: T3, Endogenous human OSM …; test: gp130 ELISA with endogenous neutrophil-derived human OSM; remark: listed apart in the source
[39] = molecular target: T1, Human OSM; test: cell-based or functional assay; remark: listed apart in the source
[40] = molecular target: T1, Human OSM; test: BIAcore kinetics, transfection supernatant
[41] = molecular target: T2, Cynomolgus OSM; test: BIAcore kinetics, transfection supernatant

KB cell neutralisation assay, mean IC50 [1]: 0.0026 µg/ml and 17 pM
KB cell neutralisation assay, mean IC50 [2]: 0.0017 µg/ml and 11 pM
KB cell neutralisation assay, mean IC50 [3]: 0.0017 µg/ml and 11 pM
IC50 (read off the curve); IL-6 release from KB cells stimulated with human OSM, 25% human AB serum [4]: ~0.02 µg/mL
IC50 [5]: 0.06 µg/mL and 0.4 nM
IC50 [6]: 0.01 µg/mL and 0.04 nM
KB cell neutralisation assay, mean IC50 [7]: 0.008 µg/ml and 53 pM
KB cell neutralisation assay, mean IC50 [8]: 0.006 µg/ml and 40 pM
fold increased affinity compared with 15E10 [9]: 8 fold
fold increased affinity compared with 15E10 [10]: 11 fold
IC50 [11]: 0.009 µg/mL and 0.06 nM
Kd [12]: 0.55 nM
Kd [13]: 0.308 nM
KB cell neutralisation assay, mean IC50 [14]: 0.054 µg/ml and 360 pM
KB cell neutralisation assay, mean IC50 [15]: 0.034 µg/ml and 227 pM
IC50 [16]: 0.044 µg/mL and 0.293 nM
IC50 [17]: 0.017 µg/mL and 0.113 nM
Kd [18]: 0.549 nM
koff [18]: 6.14e-05 s⁻¹
kon [18]: 112000 M⁻¹ s⁻¹
Kd [19]: 0.308 nM
koff [19]: 2.99e-05 s⁻¹
kon [19]: 96900 M⁻¹ s⁻¹
IC50 [20]: 0.009 µg/mL and 0.06 nM
KB cell neutralisation assay, potency compared with 15E10 [21]: 15 fold
B1: anti human OSM mAb S168110G08(1)1A09 (10G8), murine (antibody, V domains shown)
VH: EMQLVESGEGLVEPGGSLKLSCAASGFTFSNYAMSWVRQTPEKSLEWVATISDGGSFTYYLDNVRGRFTISRDNAKNNLYLQMSHLKSDDTAMYYCARDVGHTTFWYFDVWGSGTAVTVSS
VL: DIVLTQSPVFLVVSLGQRATISCRASKSVSAAGYNFMHWYQQKPGQPPKVLIKYASNLESGVPARFSGSGSGTDFTLNIHPVEEEDAVTYYCLHSREFPFTFGGGTNLEIK
notes: Mouse hybridoma mAb; also called 10G8/A9; 10G8.A9

KB cell neutralisation assay, mean IC50 [1]: 0.003 µg/ml and 20 pM
KB cell neutralisation assay, mean IC50 [2]: 0.0041 µg/ml and 27 pM
KB cell neutralisation assay, mean IC50 [3]: 0.0036 µg/ml and 24 pM
IC50 (read off the curve); MCP-1 release from IPF human lung fibroblasts stimulated with 3 ng/ml OSM [22]: ~0.03 µg/mL
KB cell neutralisation assay, mean IC50 [23]: 0.008 µg/ml and 53 pM
KB cell neutralisation assay, mean IC50 [24]: 0.007 µg/ml and 47 pM
IC50 (read off the curve); IL-6 release from HFLS-RA cells stimulated with 3 ng/ml human OSM [25]: ~0.1 nM
Kd [26]: 0.038 nM
Kd [27]: 0.053 nM
Kd [28]: 0.021 nM
Kd [29]: 0.122 nM
IC50 (read off the curve); IL-6 release from HFLS-RA cells stimulated with 0.3 ng/ml human OSM [30]: ~0.006 nM
IC50 (read off the curve); MCP-1 release from HFLS-RA cells stimulated with 0.3 ng/ml human OSM [31]: ~0.005 nM
Kd [32]: 0.136 nM
koff [32]: 9.65e-05 s⁻¹
kon [32]: 709000 M⁻¹ s⁻¹
Kd [33]: 0.199 nM
koff [33]: 8.39e-05 s⁻¹
kon [33]: 423000 M⁻¹ s⁻¹
fold increased affinity compared with 15E10h [34]: 6.5 fold
IC50 [11]: 0.0062 µg/mL and 0.041 nM
IC50 (read off the curve); MCP-1 release from HFLS-RA cells stimulated with 3 ng/ml human OSM [35]: ~0.1 nM
IC50 (read off the curve); MCP-1 release from normal human lung fibroblasts stimulated with 3 ng/ml OSM [36]: ~0.01 µg/mL
IC50 (read off the curve); IL-6 release from IPF human lung fibroblasts stimulated with 3 ng/ml OSM [37]: ~0.01 µg/mL
fold increase in potency compared with 15E10h [38]: ~12 fold
IC50 (read off the curve); IL-6 release from normal human lung fibroblasts stimulated with 3 ng/ml OSM [39]: ~0.006 µg/mL
Kd [40]: 0.437 nM
koff [40]: 0.000158 s⁻¹
kon [40]: 361000 M⁻¹ s⁻¹
Kd [41]: 0.31 nM
koff [41]: 0.000109 s⁻¹
kon [41]: 352000 M⁻¹ s⁻¹
B2: Humanised 10G8 H0(IGHV3-23)L1 (antibody, human IgG1, kappa, V domains shown)
VH: EVQLVESGGGLVQPGGSLRLSCAASGFTFSSYAMSWVRQAPGKGLEWVATISDGGSFTYYLDNVRGRFTISRDNAKNSLYLQMNSLRAEDTAVYYCARDVGHTTFWYFDVWGRGTLVTVSS
VL: DIVMTQSPDSLAVSLGERATINCRASKSVSAAGYNFMHWYQQKPGQPPKVLIYYASNLESGVPDRFSGSGSGTDFTLTISSLQAEDVAVYYCLHSREFPFTFGGGTKVEIKR
notes: IgG1 kappa; also called H0(huCDRH1)L1; H0 (CDRH1 IGHV3_23) L1

Reference: US20130251724A1 (GlaxoSmithKline, published 2013)
